Data published in article PMC7171142 (Scientific Reports, 2020).

Columns and labels:
[1] = target: Recombinant Ecto-PfRipr (D21-N1086), C-terminal His-tag (P. falciparum 3D7) (UniProt O97302); assay: SPR; single-cycle kinetics, Biacore X100; recombinant PfRipr immobilised on a CM5 chip as ligand; analytes at 3.13, 6.25, 12.5, 25 and 50 nM, contact time 120 s, dissociation 180 s, last dissociation 3000 s
[2] = target: T1, Recombinant Ecto-PfRipr (D21-N1086), C-terminal His-tag (P. falciparum 3D7, UniProt O97302 21-1086); assay: as above; settings: both partners purified
[3] = target: T1, Recombinant Ecto-PfRipr (D21-N1086), …; assay: SPR; single-cycle kinetics, Biacore X100; […], dissociation 180 s, […]; settings: both partners purified

T1 sequence (O97302 21-1086): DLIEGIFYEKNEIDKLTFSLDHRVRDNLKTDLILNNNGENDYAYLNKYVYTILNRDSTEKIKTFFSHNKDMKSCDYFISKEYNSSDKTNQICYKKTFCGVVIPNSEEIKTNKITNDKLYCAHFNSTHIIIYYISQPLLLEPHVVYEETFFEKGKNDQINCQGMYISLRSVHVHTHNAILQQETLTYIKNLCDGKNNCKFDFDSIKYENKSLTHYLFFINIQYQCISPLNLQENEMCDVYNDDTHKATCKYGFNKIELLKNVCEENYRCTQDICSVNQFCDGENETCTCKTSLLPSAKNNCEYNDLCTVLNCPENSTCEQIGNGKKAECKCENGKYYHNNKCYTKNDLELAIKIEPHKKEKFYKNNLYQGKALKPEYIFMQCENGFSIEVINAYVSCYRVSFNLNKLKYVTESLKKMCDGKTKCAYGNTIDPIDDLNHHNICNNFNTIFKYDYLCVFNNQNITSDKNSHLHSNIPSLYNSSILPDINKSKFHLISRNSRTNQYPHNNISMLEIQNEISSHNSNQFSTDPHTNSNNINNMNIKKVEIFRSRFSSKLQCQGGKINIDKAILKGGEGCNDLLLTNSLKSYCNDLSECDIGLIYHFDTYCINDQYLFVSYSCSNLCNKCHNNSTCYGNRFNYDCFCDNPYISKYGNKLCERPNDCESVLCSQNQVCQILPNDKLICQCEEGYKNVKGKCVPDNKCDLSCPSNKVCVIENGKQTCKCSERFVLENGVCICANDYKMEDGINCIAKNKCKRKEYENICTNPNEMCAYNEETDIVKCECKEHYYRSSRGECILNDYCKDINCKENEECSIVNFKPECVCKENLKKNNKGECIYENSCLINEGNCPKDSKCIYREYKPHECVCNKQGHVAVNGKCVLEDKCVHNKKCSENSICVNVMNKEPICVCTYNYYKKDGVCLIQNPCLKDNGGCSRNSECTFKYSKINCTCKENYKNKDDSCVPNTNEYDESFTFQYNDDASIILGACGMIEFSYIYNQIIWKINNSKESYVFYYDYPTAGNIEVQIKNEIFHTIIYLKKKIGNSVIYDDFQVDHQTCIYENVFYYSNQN
Chain of Recombinant Ecto-PfRipr (D21-N1086), C-terminal His-tag (P. falciparum 3D7) (O97302 21-1086): as above

Question: Which results are given for “GST-fused recombinant NPTN (Q29-L221) with C-terminal His-tag (domain or fragment)”?
Answer: Kd [1]: 24 nM; koff [1]: 6.5e-05 s⁻¹; kon [1]: 2700 M⁻¹ s⁻¹

B1: GST-fused recombinant AMIGO2 (M1-N397) with C-terminal His-tag (domain or fragment, human, UniProt Q86SJ2 1-397, looked up)
chain: MSLRVHTLPTLLGAVVRPGCRELLCLLMITVTVGPGASGVCPTACICATDIVSCTNKNLSKVPGNLFRLIKRLDLSYNRIGLLDSEWIPVSFAKLNTLILRHNNITSISTGSFSTTPNLKCLDLSSNKLKTVKNAVFQELKVLEVLLLYNNHISYLDPSAFGGLSQLQKLYLSGNFLTQFPMDLYVGRFKLAELMFLDVSYNRIPSMPMHHINLVPGKQLRGIYLHGNPFVCDCSLYSLLVFWYRRHFSSVMDFKNDYTCRLWSDSRHSRQVLLLQDSFMNCSDSIINGSFRALGFIHEAQVGERLMVHCDSKTGNANTDFIWVGPDNRLLEPDKEMENFYVFHNGSLVIESPRFEDAGVYSCIAMNKQRLLNETVDVTINVSNFTVSRSHAHEAFN
Question: How did the Kd [2] turn out when B1 was run?
Answer: The Kd was 0.16 nM.

Question: What about the koff [2] of the same molecule?
Answer: Its koff is 2e-05 s⁻¹.

Question: What about the kon [2] of the same molecule?
Answer: Its kon is 120000 M⁻¹ s⁻¹.

B2: Recombinant Rh5 (E26-Q526), released from GST by TEV protease (domain or fragment)
chain: ENAIKKTKNQENNLTLLPIKSTEEEKDDIKNGKDIKKEIDNDKENIKTNNAKDHSTYIKSYLNTNVNDGLKYLFIPSHNSFIKKYSVFNQINDGMLLNEKNDVKNNEDYKNVDYKNVNFLQYHFKELSNYNIANSIDILQEKEGHLDFVIIPHYTFLDYYKHLSYNSIYHKSSTYGKCIAVDAFIKKINETYDKVKSKCNDIKNDLIATIKKLEHPYDINNKNDDSYRYDISEEIDDKSEETDDETEEVEDSIQDTDSNHTPSNKKKNDLMNRTFKKMMDEYNTKKKKLIKCIKNHENDFNKICMDMKNYGTNLFEQLSCYNNNFCNTNGIRYHYDEYIHKLILSVKSKNLNKDLSDMTNILQQSELLLTNLNKKMGSYIYIDTIKFIHKEMKHIFNRIEYHTKIINDKTKIIQDKIKLNIWRTFQKDELLKRILDMSNEYSLFITSDHLRQMLYNTFYSKEKHLNNIFHHLIYVLQMKFNDVPIKMEYFQTYKKNKPLTQ
Question: Which results are given for B2?
Answer: Kd [2]: 0.48 nM; koff [2]: 2.9e-05 s⁻¹; kon [2]: 61000 M⁻¹ s⁻¹

B3: GST-fused recombinant SEMA7A (Q45-H666) with C-terminal His-tag (domain or fragment, human, UniProt O75326 45-666, looked up)
chain: QGHLRSGPRIFAVWKGHVGQDRVDFGQTEPHTVLFHEPGSSSVWVGGRGKVYLFDFPEGKNASVRTVNIGSTKGSCLDKRDCENYITLLERRSEGLLACGTNARHPSCWNLVNGTVVPLGEMRGYAPFSPDENSLVLFEGDEVYSTIRKQEYNGKIPRFRRIRGESELYTSDTVMQNPQFIKATIVHQDQAYDDKIYYFFREDNPDKNPEAPLNVSRVAQLCRGDQGGESSLSVSKWNTFLKAMLVCSDAATNKNFNRLQDVFLLPDPSGQWRDTRVYGVFSNPWNYSAVCVYSLGDIDKVFRTSSLKGYHSSLPNPRPGKCLPDQQPIPTETFQVADRHPEVAQRVEPMGPLKTPLFHSKYHYQKVAVHRMQASHGETFHVLYLTTDRGTIHKVVEPGEQEHSFAFNIMEIQPFRRAAAIQTMSLDAERRKLYVSSQWEVSQVPLDLCEVYGGGCHGCLMSRDPYCGWDQGRCISIYSSERSVLQSINPAEPHKECPNPKPDKAPLQKVSLAPNSRYYLSCPMESRHATYSWRHKENVEQSCEPGHQSPNCILFIENLTAQQYGHYFCEAQEGSYFREAQHWQLLPEDGIMAEHLLGHACALAASLWLGVLPTLTLGLLVH
Question: For B3, which Kd [2] is on record?
Answer: The Kd was 0.94 nM.

Question: And the koff [2]?
Answer: The koff was 4.1e-05 s⁻¹.

Question: And the kon [2]?
Answer: Its kon is 44000 M⁻¹ s⁻¹.

B4: GST-fused recombinant CyRPA (N27-E362) with C-terminal His-tag (domain or fragment)
chain: NCDSRHVFIRTELSFIKNNVPCIRDMFFIYKRELYNICLDDLKGEEDETHIYVQKKVKDSWITLNDLFKETDLTGRPHIFAYVDVEEIIILLCEDEEFSNRKKDMTCHRFYSNDGKEYNNSEITISDYILKDKLLSSYVSLPLKIENREYFLICGVSPYKFKDDNKKDDILCMASHDKGETWGTKIVIKYDNYKLGVQYFFLRPYISKNDLSFHFYVGDNINNVKNVNFIECTHEKDLEFVCSNRDFLKDNKVLQDVSTLNDEYIVSYGNDNNFAECYIFFNNENSILIKPEKYGNTTAGCYGGTFVKIDENRTLFIYSSSQGIYNIHTIYYANYE
Question: Which results are given for B4?
Answer: Kd [3]: 69 nM; koff [3]: 0.00016 s⁻¹; kon [3]: 2400 M⁻¹ s⁻¹
